Measured values as given in US20230233707A1 (University of Washington, published 2023).

Target: T1, Fc from human IgG1 (human, UniProt P01857-1 104-330 = IgG part)
T1 construct: domain: Fc; also called human IgG1 Fc; IgG1 Fc protein
Experiment: SEC, design mixed with human IgG1 Fc, overlaid on the single components [panel B]
Source text: Synthetic genes encoding designed protein sequences appended with a C-terminal 6× histidine tag were expressed in E. coli. Designs were purified from clarified lysates using immobilized metal affinity chromatography (IMAC), and size exclusion chromatography (SEC) was used as a final purification step. […] Designs were then combined with human IgG1 Fc, and the assemblies were re-purified via SEC. Eight of these AbC-forming designs assembled with Fc into a species that eluted as a monodisperse peak at a volume consistent with the target nanoparticle molecular weight (FIG. 2a-b; 3 D2 dihedral, 2 T32 tetrahedral, 1 O42 octahedral, and 2 I52 icosahedral AbCs). For the i52.6 design, adding 100 mM L-arginine to the assembly buffer prevented aggregation after combining with Fc; all other designs readily self-assembled in Tris-buffered saline.
Designs that produced monodisperse SEC peaks around their expected retention volume were combined with Fc from human IgG1. Fc was produced recombinantly either using standard methods for expression in HEK293T cells or in E. coli (43). Cage components were incubated at 4° C. for at minimum 30 minutes. […] Fc-binding and cage formation were confirmed via SEC; earlier shifts in retention time (compared to either component run alone) show the formation of a larger structure. NS-EM was used as previously described to confirm the structures of designs that passed these steps.

Binder | binding result
d2.7 (designed binder, Homodimer for D2 dihedral cages; C-terminal GS linker and 6xHis tag; also called d2.7 AbC-forming design) MSDEEERNELIKRIREAAQRAREAAERTGDPRVRELARELAKLAQIAFYLVLHDPSAKEVNLALELIVKAIELAVRALEEAEKTGDPHARELAREIVRLAVELARAVAEAAEEAKKQGNSELAEQVARAAQVALEVIKAAITAAKQGDRKAFRAALELVLEVIKAIEEAVKQGNPKKVAEVALKAELIRIVVQNAANKGDDADEAVEAARAAFEIVLAAAQLAGIDSEEVLELAARLIKEVVENAQREGYDIAVAAIAAAVAFAVVAVAAAAADITSSEVLELAIRLIKEVVENAVREGYVILLAALAAAAAFVVVAAAAKRAGITSSETLKRAIEEIRKRVEEAQREGNDISEAARQAAEEFRKKAEELKGSLEHHHHHH | binds
d2.4 (designed binder, Homodimer for D2 dihedral cages; C-terminal GS linker and 6xHis tag; also called d2.4 AbC-forming design) MSDEEERNELIKRIREAAQRAREAAERTGDPRVRELARELARIAQIAFYLVLHDPSSSEVNEALKAVVKAIELAVRALEAAEKTGDPRVRELAREVVKAAVDVAEAAQAGLNDKLREVAEKALRLAKEALKEGDSTAAELAAEIARLAAKLAGDEDVLKKVKLVLEAIKLVKIVVENAKRKGDDSKEAAEAAVAAFLIVLAAAKLAGIASEEVLELAARLIKEVVENAQREGYDIAVAAIAAAVAFAVVAVAAAAADITSSEVLELAIRLIKEVVENAQREGYVILLAALAAAAAFVVVAAAAKRAGITSSETLKRAIEEIRKRVEEAQREGNDISEAARQAAEEFRKKAEELKGSLEHHHHHH | binds
d2.3 (designed binder, also called d2.3 AbC-forming design) MSDEEERNELIKRIREAAQRAREAAERTGDPRVRELARELARIAQIAFYLVLHDPSSSEVNEALKAVVKAIELAVRALEEAEKTGDPEVRELAREVVRLAVEVATATAAGENDTLRKVAERALRLAKEAAKRGDAKAAKQAAKIAKLAAANAGDEDVLKKVELVRLAIELVEIVVENAKRKGDDDKEAAEAALAAFRIVLAAAQLAGIASLEVLELALRLIKEVVENAQREGYDIAVAAIAAAVAFAVVAVAAAAADITSSEVLELAIRLIKEVVENAQREGYVILLAALAAAAAFVVVAAAAKRAGITSSETLKRAIEEIRKRVEEAQREGNDISEAARQAAEEFRKKAEELKGSLEHHHHHH | binds
i52.6 (designed binder, Homopentamer for I52 icosahedral cages; C-terminal GS linker and 6xHis tag; also called i52.6 AbC-forming design) MSDEEERNELIKRIREAAQRAREAAERTGDPRVRELARELARLAQRAFYLVLHDPSSSDVNEALKLIVEAIEAAVRALEAAERTGDPKVREEARELVRRAVEAAEEVQRNPSSSEVNEKLKAIVVEIEVKVASLEAKEVTDPDKALKIAKKVIELALEAVKENPSTEALRAVLEAVRLASEVAKRVTDPDKALKIAKLVIELALEAVKEDPSTDALRAVLEAVRLASEVAKRVTDPDKALKIAKLVLELAAEAVKEDPSTDALRAAKEAERLATEVAKRVTDPKKAREIEMLVLKLQMEAILAETEEVKKEIEESKKRPQSESAKNLILIMQLLINQIRLLALQIRMLALQLQEGSLEHHHHHH | binds
i52.3 (designed binder, Homopentamer for I52 icosahedral cages; C-terminal GS linker and 6xHis tag; also called i52.3 AbC-forming design) MSDEEERNELIKRIREAAQRAREAAERTGDPRVRELARELARLAQRAFYLVLHDPSSSDVNEALKLIVEAIEAAVRALEAAERAGDPELREDAREAVRLAVEAAEEVQRNPSSSTANLLLKAIVALAEALAAAANGDKEKFKKAAESALEIAKRVVEVASKEGDPEAVLEAAKVALRVAELAAKNGDKEVFKKAAESALEVAKRLVEVASKEGDPELVLEAAKVALRVAELAAKNGDKEVFQKAAASAVEVALRLTEVASKEGDSELETEAAKVITRVRELASKQGDAAVAILAETAEVKLEIEESKKRPQSESAKNLILIMQLLINQIRLLVLQIRMLDEQRQEGSLEHHHHHH | binds
